Source: patent US6645501B2, “Anti-pathogen system and methods of use thereof” (Washington University, priority 1997, dated 2003)

Key:
Assay type in all cases: cell-based
[1] = tested on: HIV-infected (NLHX strain) and uninfected Jurkat T-cells; assay: FACS analysis of transduction and retention of fusion proteins in HIV-infected and uninfected Jurkat T-cells; conditions: about 35 to 45 nanomoler, about 30 minutes, HIV (NLHX) infected Jurkat culture
Procedure: To see if p16 fusion proteins could remain in the cell cytosol of the HIV infected cells, the TAT-HIV1,2 p16 fusion proteins produced in Example 3 were purified and labeled with FITC as described above. About 35 to 45 nanomoler of the labeled fusion protein was then added to HIV-infected (NLHX strain) and uninfected Jurkat T-cells in accordance with Example 6 below. The transduced Jurkat T-cells were then analyzed by FACS. All (100%) of cells in a mixed population of HIV infected/uninfected cells were transduced with the p16 protein at 1, 2, 4, 8 and 16 hours post-addition of the FITC conjugated fusion protein. However, when the cells were washed in fresh media and the PTD has driven out of the cells due to the concentration gradient (now high inside and 0 outside), the infected cells retained the cleaved substrate (the p16 portion) but uninfected controls lost all of the transduced protein (it transduced out) as determined by the continued presence of FITC-labeled p16 as analyzed by FACS.
About 5×10^6 Jurkat T-cells were infected by HIV (strain NLHX; about 1×10^5 to 1×10^6 infectious virus per ml). The cells were propagated in RPMI media. Approximately 4 to 7 days after the infection, the media was removed from the plates and about 35 to 45 nanomoler of the TAT-CPP32 fusion protein was added to the cells. […]

[2] = tested on: Jurkat T-cells infected by HIV (strain NLHX); assay: Killing of HIV-infected Jurkat T-cells, trypan blue exclusion and microscopy; conditions: about 18 hours post-transduction
Procedure: About 5×10^6 Jurkat T-cells were infected by HIV (strain NLHX; about 1×10^5 to 1×10^6 infectious virus per ml). The cells were propagated in RPMI media. Approximately 4 to 7 days after the infection, the media was removed from the plates and about 35 to 45 nanomoler of the TAT-CPP32 fusion protein was added to the cells. The cells were incubated with the fusion proteins for about 30 minutes to allow transduction into the cells. […] Subsequently, media was added back to the plates and after about 18 hours post-transduction, the cells were examined for cell killing using conventional trypan blue exclusion and microscopy.
Briefly, cells were infected and transduced as described in Example 6 above. Following the transduction, about 1 μg/ml Ritonavir was added to the cell media and allowed to incubate with the cells for about 18 hours. The cells were then assayed for cell killing by conventional trypan blue exclusion and microscopy. […]

Jurkat T cells = assay: Co-transduction of uninfected Jurkat T cells with TAT-CPP32 and TAT-Protease, survival by trypan-blue exclusionary dye microscopy; conditions: 50-100 nM, uninfected Jurkat T cells, 18 hr post-addition
Procedure: To test for activation of the TAT-CPP32 by TAT-Protease, 2×10^6 Jurkat T cells were placed in 2 ml of culture (RPMI media). To these cells, various combinations of control and experimental transducible proteins were added in 50-100 nM ranges, as follows:
The cells were assayed for survival at 18 hr post-addition by trypan-blue exclusionary dye microscopy. […] Thus, activation of TAT-CPP32 requires the presence of HIV protease.

B1: TAT-CPP32: HIS-TAT-PTD-HIV2-large subunit of CPP32-HIV1-small subunit of CPP32 fusion protein (protein)
chain: GRKKRRQRRRGYPYDVPDYACTERQANFLGKIWPGISLDNSYKMDYPEMGLCIIINNKNFHKSTGMTSRSGTDVDAANLRETFRNLKYEVRNKNDLTREEIVELMRDVSKEDHSKRSSFVCVLLSHGEEGIIFGTNGPVDLKKITNFFRGDRCRSLTGKPKLFIIQACRGTELDCGIETSQVSQNYPIVQNLQGVDDDMACHKIPVEADFLYAYSTAPGYYSWRNSKDGSWFIQSLCAMLKQYADKLEFMHILTRVNRKVATEFESFSFDATFHAKKQIPCIVSMLTKELYFYH
modifications: left off: small tags and cut ends
notes: HIS-TAT-PTD-HIV2-large subunit of CPP32-HIV1-small subunit of CPP32 fusion protein
[1]
  cells transduced by the fusion protein: about 100%
[2]; about 35 to 45 nanomoler
  killing of HIV-infected cells: about all of the infected cells were killed
[2]
  killing of uninfected cells in the population: does not kill
Jurkat T cells
  cytotoxicity when added alone: minimal cytotoxicity
  loss of viable cells when added plus TAT-Protease: substantial loss of viable cells
